From US20230183352A1 (published 2023)
Residue numbers refer to the chain shown, from its start. Where two headings read alike, the source gives them in different places. One block for each binder: values may come before it.

Key:
[1] = target: T1, Claudin 18.2 (CLDN18.2), expressed on CHOS-CLDN 18.2 / HEK293-CLDN 18.2 / HCC827-CLDN 18.2 cells (human, UniProt P56856-2 1-261); assay: FACS, CHOS-CLDN18.2 cells
T1 construct: whole, on cells; The species is not repeated for the CHOS-CLDN 18.2 cells; also called claudin-18A2
Description: (§1) The initial concentration of the antibody was 20 μg/ml, it was diluted at 1:4, and incubated at 4° C. for 60 min.

[2] = target: T1, Claudin 18.2 (CLDN18.2), expressed on …; assay: FACS, CHOS-CLDN18.2 cells, 5 µg/ml
Description: as §1

[3] = target: T1, Claudin 18.2 (CLDN18.2), expressed on …; assay: FACS, CHOS-CLDN18.2 cells, 20 µg/ml
Description: as §1

[4] = target: T1, Claudin 18.2 (CLDN18.2), expressed on …; assay: FACS, CHOS-CLDN18.2 cells, 10 µg/ml
Description: (§2) The initial concentration of the antibody was 20 μg/mkit was diluted at 1:4, and incubated at 4° C. for 60 min.

[5] = target: T1, Claudin 18.2 (CLDN18.2), expressed on …; assay: FACS, CHOS-CLDN18.2 cells, 0.005 µg/ml
Description: as §1

[6] = target: T1, Claudin 18.2 (CLDN18.2), expressed on …; assay: FACS, CHOS-CLDN18.2 cells, 0.020 µg/ml
Description: as §1

[7] = target: T1, Claudin 18.2 (CLDN18.2), expressed on …; assay: FACS, CHOS-CLDN18.2 cells, 0.078 µg/ml
Description: as §1

[8] = target: T1, Claudin 18.2 (CLDN18.2), expressed on …; assay: FACS, CHOS-CLDN18.2 cells, 0.313 µg/ml
Description: as §1

[9] = target: T1, Claudin 18.2 (CLDN18.2), expressed on …; assay: FACS, CHOS-CLDN18.2 cells, 1.250 µg/ml
Description: as §1

[10] = target: T1, Claudin 18.2 (CLDN18.2), expressed on …; assay: FACS, CHOS-CLDN18.2 cells, 0 µg/ml (background)
Description: as §1

[11] = target: T1, Claudin 18.2 (CLDN18.2), expressed on …; assay: FACS, MFI on CHOS-CLDN18.2 over MFI on CHOS-CLDN18.1, 10 µg/ml
Description: as §2

[12] = target: T1, Claudin 18.2 (CLDN18.2), expressed on …; assay: cell-based or functional assay
[13] = target: T1, Claudin 18.2 (CLDN18.2), expressed on …; assay: FACS, CHOS-CLDN18.2 cells; remark: listed apart in the source
Description: as §1

[14] = target: T1, Claudin 18.2 (CLDN18.2), expressed on …; assay: FACS, CHOS-CLDN18.2 cells, 5 µg/ml; remark: listed apart in the source
Description: as §1

[15] = target: T1, Claudin 18.2 (CLDN18.2), expressed on …; assay: FACS, CHOS-CLDN18.2 cells, 20 µg/ml; remark: listed apart in the source
Description: as §1

[16] = target: T1, Claudin 18.2 (CLDN18.2), expressed on …; assay: FACS, CHOS-CLDN18.2 cells, 0.005 µg/ml; remark: listed apart in the source
Description: as §1

[17] = target: T1, Claudin 18.2 (CLDN18.2), expressed on …; assay: FACS, CHOS-CLDN18.2 cells, 0.020 µg/ml; remark: listed apart in the source
Description: as §1

[18] = target: T1, Claudin 18.2 (CLDN18.2), expressed on …; assay: FACS, CHOS-CLDN18.2 cells, 0.078 µg/ml; remark: listed apart in the source
Description: as §1

[19] = target: T1, Claudin 18.2 (CLDN18.2), expressed on …; assay: FACS, CHOS-CLDN18.2 cells, 0.313 µg/ml; remark: listed apart in the source
Description: as §1

[20] = target: T1, Claudin 18.2 (CLDN18.2), expressed on …; assay: FACS, CHOS-CLDN18.2 cells, 1.250 µg/ml; remark: listed apart in the source
Description: as §1

[21] = target: T1, Claudin 18.2 (CLDN18.2), expressed on …; assay: FACS, CHOS-CLDN18.2 cells, 0 µg/ml (background); remark: listed apart in the source
Description: as §1

B1: QP201202 (antibody, human IgG1, V domains shown)
VH: EVQLQQSGPELVKPGASVKMSCKASGYTFTNYFVHWVKQKPGQGLEWIGYINPYNDDTKYNEKFKGKATLTSDKSSSTAYMDLSSLTSEDSAVYYCLSLRFFAYWGQGTLVTVSA
VL: DIVMTQSPSSLTVTAGEKVTMSCKSSQSLLNSGNQKNYLTWYQQKPGQAPKLLIYWASTRESGVPDRFIGSGSGTDFTLTISHVQAEDLAVYFCQNDYSYPLTFGAGTNLELK
notes: Chimeric; also called 44C6
EC50 [1]: 0.417 µg/mL
max [1]: 113000
FACS reading [2]: 81100
FACS reading [3]: 113000
MFI [4]: 439000
FACS reading [5]: 2260
FACS reading [6]: 4770
FACS reading [7]: 12600
FACS reading [8]: 38000
FACS reading [9]: 92700
FACS reading [10]: 732
CLDN18.2/CLDN18.1 (MFI ratio) [11]: 381

B3: QP14581454 (antibody, human IgG1, kappa, V domains shown)
VH: QVQLVQSGAEVKKPGASVKVSCKASGYTFTNYFVHWVKQAPGQGLEWIGYINPYNDDTKYNEKFKGKATLTRDTSTSTVYMELSSLRSEDTAVYYCLSLRFFAYWGQGTLVTVSS
VL: DIVMTQSPDSLAVSLGERATISCKSSQSLLNSGNQKNYLTWYQQKPGQAPKLLIYWASTRESGVPDRFSGSGSGTDFTLTISSVQAEDVAVYFCQNDYSYPLTFGGGTKVEIKR
notes: Humanized from QP201202
EC50 [1]: 0.363 µg/mL
max [1]: 73700
FACS reading [2]: 73700
FACS reading [3]: 58600
MFI [4]: 502000
FACS reading [5]: 2370
FACS reading [6]: 4470
FACS reading [7]: 11500
FACS reading [8]: 30800
FACS reading [9]: 56100
FACS reading [10]: 732
CLDN18.2/CLDN18.1 (MFI ratio) [11]: 506

Now from value to binder, other results behind:

EC50 [13]: 0.223 µg/mL
max [13]: 169000
FACS reading [14]: 139000
FACS reading [15]: 169000
MFI [4]: 620000
FACS reading [16]: 4930
FACS reading [17]: 13800
FACS reading [18]: 35400
FACS reading [19]: 104000
FACS reading [20]: 123000
FACS reading [21]: 732
CLDN18.2/CLDN18.1 (MFI ratio) [11]: 470
B2: QP14451440 (antibody, human IgG1, kappa, V domains shown)
VH: QVQLVQSGAEVKKPGASVKVSCKASGYAFSSYWMNWVRQAPGQGLEWIGQIYPGNGDTTYNGKFKGRVTMTADKSTSTVYMELSSLRSEDTAVYFCARFVKGNAMDYWGQGTLVTVSS
VL: B3 VL with A49P, V84L, F93Y, D97A, L102F, G106Q, V110L
notes: Humanized from QP192193; also called QP14401445
EC50 of killing, ADCC (PBMC, HEK293-CLDN18.2 cells) [12]: 0.0082 µg/mL
Killing percentage, ADCC (PBMC, HEK293-CLDN18.2 cells), 0 µg/ml [12]: 5.43%
Killing percentage, ADCC (PBMC, HEK293-CLDN18.2 cells), 0.0001024 µg/ml [12]: -1.11%
Killing percentage, ADCC (PBMC, HEK293-CLDN18.2 cells), 0.000512 µg/ml [12]: 10%
Killing percentage, ADCC (PBMC, HEK293-CLDN18.2 cells), 0.00256 µg/ml [12]: 10.8%
Killing percentage, ADCC (PBMC, HEK293-CLDN18.2 cells), 0.0128 µg/ml [12]: 28.5%
Killing percentage, ADCC (PBMC, HEK293-CLDN18.2 cells), 0.064 µg/ml [12]: 42.1%
Killing percentage, ADCC (PBMC, HEK293-CLDN18.2 cells), 0.32 µg/ml [12]: 43.7%
Killing percentage, ADCC (PBMC, HEK293-CLDN18.2 cells), 1.6 µg/ml [12]: 37.8%
Killing percentage, ADCC (PBMC, HEK293-CLDN18.2 cells), 8 µg/ml [12]: 42.7%
Killing percentage, ADCC (PBMC, HEK293-CLDN18.2 cells), 40 µg/ml [12]: 47.8%

EC50 [1]: 0.425 µg/mL
max [1]: 104000
FACS reading [2]: 83000
FACS reading [3]: 104000
MFI [4]: 554000
FACS reading [5]: 2420
FACS reading [6]: 5920
FACS reading [7]: 13600
FACS reading [8]: 33300
FACS reading [9]: 91400
FACS reading [10]: 732
CLDN18.2/CLDN18.1 (MFI ratio) [11]: 581
B4: QP14581453 (antibody, human IgG1, kappa, V domains shown)
VH: B3 VH
VL: B3 VL with V84L, F93Y
notes: Humanized from QP201202

EC50 [1]: 0.573 µg/mL
max [1]: 146000
FACS reading [2]: 114000
FACS reading [3]: 146000
MFI [4]: 477000
FACS reading [5]: 2470
FACS reading [6]: 6390
FACS reading [7]: 13400
FACS reading [8]: 44800
FACS reading [9]: 107000
FACS reading [10]: 732
CLDN18.2/CLDN18.1 (MFI ratio) [11]: 430
B5: QP14561454 (antibody, human IgG1, kappa, V domains shown)
VH: B3 VH with K38R, I48M, K67R, A68V, L70M
VL: B3 VL
notes: Humanized from QP201202
